Values of other authors as cited in US20200069786A1, “COMPOSITION AND PROCESS FOR PREPARING VACCINE” (TREOS BIO ZRT., priority 2018, published 2020).
Read-outs that look alike come from different tables or passages of the source.

B1: TEKT5 (protein, UniProt Q96M29 1-485, looked up)
Tektin-5: MEFLGTTQTASYCGPKKCCGLTSLPAVQAPVIQECYQPYYLPGYRYLNSWRPSLFYKIANVQTCPDESTSTLRPPTILPTLRSALFSRYSPHDWDQSNQLQVRGAEASRLWASRLTDDSMRLLQDKDQLTHQMQEGTCRNLGQRLSDIGFWKSELSYELDRLLTENQNLETVKRRLECAANEVNCPLQVALECLYHREKRIGIDLVHDNVEKNLIREVDLLKCCQEQMRKLAQRIDIQMRDNRDAQHVLERDLEDKSSAQCIDEKCFNLRNTSDCISFFHGMEKIDGTISVPETWAKFSNDNIKHSQNMRANSIQLREEAEHLFETLSDQMWRQFTDTNLAFNARISEVTDVKNKLQTQLAKTLQEIFQAENTIMLLERSIMAKEGPLKVAQTRLECRTRRPNMELCRDIPQLKLVNEVFTIDDTLQTLKLRLRETQDTLQLLVMTKCRLEHELAIKANTLCIDKEKCMGMRKTFPCTPRLVGHT
B2: MAGE-B1 (protein, UniProt P43366 1-347, looked up)
Melanoma-associated antigen B1: MPRGQKSKLRAREKRRKAREETQGLKVAHATAAEKEECPSSSPVLGDTPTSSPAAGIPQKPQGAPPTTTAAAAVSCTESDEGAKCQGEENASFSQATTSTESSVKDPVAWEAGMLMHFILRKYKMREPIMKADMLKVVDEKYKDHFTEILNGASRRLELVFGLDLKEDNPSGHTYTLVSKLNLTNDGNLSNDWDFPRNGLLMPLLGVIFLKGNSATEEEIWKFMNVLGAYDGEEHLIYGEPRKFITQDLVQEKYLKYEQVPNSDPPRYQFLWGPRAYAETTKMKVLEFLAKMNGATPRDFPSHYEEALRDEEERAQVRSSVRARRRTTATTFRARSRAPFSRSSHPM
B3: ATAD2 (protein, UniProt Q6PL18 1-1390, looked up)
ATPase family AAA …: MVVLRSSLELHNHSAASATGSLDLSSDFLSLEHIGRRRLRSAGAAQKKPAATTAKAGDGSSVKEVETYHRTRALRSLRKDAQNSSDSSFEKNVEITEQLANGRHFTRQLARQQADKKKEEHREDKVIPVTRSLRARNIVQSTEHLHEDNGDVEVRRSCRIRSRYSGVNQSMLFDKLITNTAEAVLQKMDDMKKMRRQRMRELEDLGVFNETEESNLNMYTRGKQKDIQRTDEETTDNQEGSVESSEEGEDQEHEDDGEDEDDEDDDDDDDDDDDDDDEDDEDEEDGEEENQKRYYLRQRKATVYYQAPLEKPRHQRKPNIFYSGPASPARPRYRLSSAGPRSPYCKRMNRRRHAIHSSDSTSSSSSEDEQHFERRRKRSRNRAINRCLPLNFRKDELKGIYKDRMKIGASLADVDPMQLDSSVRFDSVGGLSNHIAALKEMVVFPLLYPEVFEKFKIQPPRGCLFYGPPGTGKTLVARALANECSQGDKRVAFFMRKGADCLSKWVGESERQLRLLFDQAYQMRPSIIFFDEIDGLAPVRSSRQDQIHSSIVSTLLALMDGLDSRGEIVVIGATNRLDSIDPALRRPGRFDREFLFSLPDKEARKEILKIHTRDWNPKPLDTFLEELAENCVGYCGADIKSICAEAALCALRRRYPQIYTTSEKLQLDLSSINISAKDFEVAMQKMIPASQRAVTSPGQALSTVVKPLLQNTVDKILEALQRVFPHAEFRTNKTLDSDISCPLLESDLAYSDDDVPSVYENGLSQKSSHKAKDNFNFLHLNRNACYQPMSFRPRILIVGEPGFGQGSHLAPAVIHALEKFTVYTLDIPVLFGVSTTSPEETCAQVIREAKRTAPSIVYVPHIHVWWEIVGPTLKATFTTLLQNIPSFAPVLLLATSDKPHSALPEEVQELFIRDYGEIFNVQLPDKEERTKFFEDLILKQAAKPPISKKKAVLQALEVLPVAPPPEPRSLTAEEVKRLEEQEEDTFRELRIFLRNVTHRLAIDKRFRVFTKPVDPDEVPDYVTVIKQPMDLSSVISKIDLHKYLTVKDYLRDIDLICSNALEYNPDRDPGDRLIRHRACALRDTAYAIIKEELDEDFEQLCEEIQESRKKRGCSSSKYAPSYYHVMPKQNSTLVGDKRSDPEQNEKLKTPSTPVACSTPAQLKRKIRKKSNWYLGTIKKRRKISQAKDDSQNAIDHKIESDTEETQDTSVDHNETGNTGESSVEENEKQQNASESKLELRNNSNTCNIENELEDSRKTTACTELRDKIACNGDASSSQIIHISDENEGKEMCVLRMTRARRSQVEQQQLITVEKALAILSQPTPSLVVDHERLKNLLKTVVKKSQNYNIFQLENLYAVISQCIYRHRKDHDKTSLIQKMEQEVENFSCSR
B4: SAGE1 (protein, UniProt Q9NXZ1 1-904, looked up)
Sarcoma antigen 1: MQASPLQTSQPTPPEELHAAAYVFTNDGQQMRSDEVNLVATGHQSKKKHSRKSKRHSSSKRRKSMSSWLDKQEDAAVTHSICEERINNGQPVADNVLSTAPPWPDATIAHNIREERMENGQSRTDKVLSTAPPQLVHMAAAGIPSMSTRDLHSTVTHNIREERMENGQPQPDNVLSTGPTGLINMAATPIPAMSARDLYATVTHNVCEQKMENVQPAPDNVLLTLRPRRINMTDTGISPMSTRDPYATITYNVPEEKMEKGQPQPDNILSTASTGLINVAGAGTPAISTNGLYSTVPHNVCEEKMENDQPQPNNVLSTVQPVIIYLTATGIPGMNTRDQYATITHNVCEERVVNNQPLPSNALSTVLPGLAYLATADMPAMSTRDQHATIIHNLREEKKDNSQPTPDNVLSAVTPELINLAGAGIPPMSTRDQYATVNHHVHEARMENGQRKQDNVLSNVLSGLINMAGASIPAMSSRDLYATITHSVREEKMESGKPQTDKVISNDAPQLGHMAAGGIPSMSTKDLYATVTQNVHEERMENNQPQPSYDLSTVLPGLTYLTVAGIPAMSTRDQYATVTHNVHEEKIKNGQAASDNVFSTVPPAFINMAATGVSSMSTRDQYAAVTHNIREEKINNSQPAPGNILSTAPPWLRHMAAAGISSTITRDLYVTATHSVHEEKMTNGQQAPDNSLSTVPPGCINLSGAGISCRSTRDLYATVIHDIQEEEMENDQTPPDGFLSNSDSPELINMTGHCMPPNALDSFSHDFTSLSKDELLYKPDSNEFAVGTKNYSVSAGDPPVTVMSLVETVPNTPQISPAMAKKINDDIKYQLMKEVRRFGQNYERIFILLEEVQGSMKVKRQFVEFTIKEAARFKKVVLIQQLEKALKEIDSHCHLRKVKHMRKR
B5: MAGE-B4 (protein, UniProt O15481 1-346, looked up)
Melanoma-associated antigen B4: MPRGQKSKLRAREKRQRTRGQTQDLKVGQPTAAEKEESPSSSSSVLRDTASSSLAFGIPQEPQREPPTTSAAAAMSCTGSDKGDESQDEENASSSQASTSTERSLKDSLTRKTKMLVQFLLYKYKMKEPTTKAEMLKIISKKYKEHFPEIFRKVSQRTELVFGLALKEVNPTTHSYILVSMLGPNDGNQSSAWTLPRNGLLMPLLSVIFLNGNCAREEEIWEFLNMLGIYDGKRHLIFGEPRKLITQDLVQEKYLEYQQVPNSDPPRYQFLWGPRAHAETSKMKVLEFLAKVNDTTPNNFPLLYEEALRDEEERAGARPRVAARRGTTAMTSAYSRATSSSSSQPM
B6: ACRBP (protein, UniProt Q8NEB7 26-543, looked up)
Acrosin-binding protein: QDSTQASTPGSPLSPTEYERFFALLTPTWKAETTCRLRATHGCRNPTLVQLDQYENHGLVPDGAVCSNLPYASWFESFCQFTHYRCSNHVYYAKRVLCSQPVSILSPNTLKEIEASAEVSPTTMTSPISPHFTVTERQTFQPWPERLSNNVEELLQSSLSLGGQEQAPEHKQEQGVEHRQEPTQEHKQEEGQKQEEQEEEQEEEGKQEEGQGTKEGREAVSQLQTDSEPKFHSESLSSNPSSFAPRVREVESTPMIMENIQELIRSAQEIDEMNEIYDENSYWRNQNPGSLLQLPHTEALLVLCYSIVENTCIITPTAKAWKYMEEEILGFGKSVCDSLGRRHMSTCALCDFCSLKLEQCHSEASLQRQQCDTSHKTPFVSPLLASQSLSIGNQVGSPESGRFYGLDLYGGLHMDFWCARLATKGCEDVRVSGWLQTEFLSFQDGDFPTKICDTDYIQYPNYCSFKSQQCLMRNRNRKVSRMRCLQNETYSALSPGKSEDVVLRWSQEFSTLTLGQFG
B7: MART1 (protein, UniProt Q16655 1-118, looked up)
Melanoma antigen recognized …: MPREDAHFIYGYPKKGHGHSYTTAEEAAGIGILTVILGVLLLIGCWYCRRRNGYRALMDKSLHVGTQCALTRRCPQEGFDHRDSKVSLQEKNCEPVVPNAPPAYEKLSAEQSPPPYSP
B8: WBP2NL (protein, UniProt Q6ICG8 1-309, looked up)
Postacrosomal sheath WW …: MAVNQSHTENRRGALIPNGESLLKRSPNVELSFPQRSEGSNVFSGRKTGTLFLTSYRVIFITSCSISDPMLSFMMPFDLMTNLTVEQPVFAANFIKGTIQAAPYGGWEGQATFKLVFRNGDAIEFAQLMVKAASAAARGFPLRTLNDWFSSMGIYVITGEGNMCTPQMPCSVIVYGAPPAGYGAPPPGYGAPPAGYGAQPVGNEGPPVGYRASPVRYGAPPLGYGAPPAGYGAPPLGYGAPPLGYGTPPLGYGAPPLGYGAPPAGNEGPPAGYRASPAGSGARPQESTAAQAPENEASLPSASSSQVHS
B9: MAGE-B2 (protein, UniProt O15479 1-319, looked up)
Melanoma-associated antigen B2: MPRGQKSKLRAREKRRKARDETRGLNVPQVTEAEEEEAPCCSSSVSGGAASSSPAAGIPQEPQRAPTTAAAAAAGVSSTKSKKGAKSHQGEKNASSSQASTSTKSPSEDPLTRKSGSLVQFLLYKYKIKKSVTKGEMLKIVGKRFREHFPEILKKASEGLSVVFGLELNKVNPNGHTYTFIDKVDLTDEESLLSSWDFPRRKLLMPLLGVIFLNGNSATEEEIWEFLNMLGVYDGEEHSVFGEPWKLITKDLVQEKYLEYKQVPSSDPPRFQFLWGPRAYAETSKMKVLEFLAKVNGTTPCAFPTHYEEALKDEEKAGV

System: TSA
[1] = TSA expression rate in GASTRIC cancer
[2] = TSA expression rate in HEAD and NECK
[3] = TSA expression rate in LUNG cancer
[4] = TSA expression rate in PROSTATE cancer
[5] = TSA expression rate in BLADDER cancer
[6] = TSA expression rate in LEUKEMIAS
[7] = TSA expression rate in MELANOMA

| Molecule | TSA Expression Rate (ER) (HCC) | Expression Rate (ER) % (TSA expression rate in CRC) | Expression Rate (ER) % [1] | Expression Rate (ER) % [2] | Expression Rate (ER) % [3] | Expression Rate (ER) % [4] | TSA Expression Rate (ER) (BRAIN) | Expression Rate (ER) % [5] | Expression Rate (ER) % (TSA expression rate in Kidney) | Expression Rate (ER) % [6] | Expression Rate (ER) % [7] | TSA Expression Rate (ER) (BREAST) | TSA Expression Rate (ER) (LUNG) | TSA Expression Rate (ER) (THYROID) | Expression Rate (ER) % (TSA expression rate in Esophageal) | TSA Expression Rate (ER) (OVARIAN) |
| --- | --- | --- | --- | --- | --- | --- | --- | --- | --- | --- | --- | --- | --- | --- | --- | --- |
| B1 | 60% | 50% | 40% | 0% | 10% | 11% | – | – | – | – | – | – | – | – | – | – |
| B2 | 47% | 0% | – | – | 13% | 0% | 0% | 0% | 0% | 5% | 19% | – | – | – | – | – |
| B3 | – | 58% | 43% | – | – | 0% | – | – | – | – | 0% | 52% | 23% | – | – | – |
| B4 | – | – | 8% | 17% | 15% | – | 0% | 12% | 5% | – | 5% | 2% | – | 0% | 22% | – |
| B5 | – | – | – | – | 0% | – | 0% | – | – | 3% | – | – | – | – | – | – |
| B6 | 70% | 63% | 0% | – | – | 4% | – | 28% | 0% | – | – | 40% | 20% | – | – | 65% |
| B7 | – | – | – | – | – | – | 0% | – | – | – | 89% | – | – | 0% | – | – |
| B8 | – | – | – | – | – | – | – | – | – | – | – | 50% | – | – | – | – |
| B9 | 61% | 0% | 0% | 45% | – | 0% | 0% | 0% | 0% | – | 22% | – | 43% | – | – | – |
